# Reference: PMC5575937
# Changes are numbered by the printed parent chain.
# B1: 23-bp ETS consensus duplex (dsDNA)
# DNA 1: CGGCCAAGCCGGAAGTGAGTGCC
# DNA 2: GGCACTCACTTCCGGCTTGGCCG
# B2: 15-bp ETS consensus duplex (dsDNA)
# DNA 1: CAAGCCGGAAGTGAG
# DNA 2: CTCACTTCCGGCTTG
# Key:
# ETV6RAE = target: T1, ETV6RAE (Mus musculus (murine), UniProt P97360 329-446, C334S;H432R;S435A;Q436E); experiment: EMSA
# T1 sequence: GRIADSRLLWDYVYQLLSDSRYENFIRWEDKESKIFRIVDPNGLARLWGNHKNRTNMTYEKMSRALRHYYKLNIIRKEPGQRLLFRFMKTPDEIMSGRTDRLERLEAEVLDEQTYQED
# ETV6H432R = target: T2, ETV6H432R (Mus musculus (murine), UniProt P97360 329-446, C334S;H432R); experiment: EMSA
# T2 sequence: T1 sequence with A107S, E108Q
# ETV62C-red = target: T3, ETV62C-red (Mus musculus (murine), UniProt P97360 329-446, C334S;A393C;V437C); experiment: NMR
# T3 sequence: T1 sequence with A65C, R104H, A107S, E108Q, V109C
binder,measurement,setting,value
B1,Kd,ETV6RAE,90 ± 10 nM
same,Kd,ETV6H432R,30 ± 10 nM
B2,binding result,ETV62C-red,binds
